# According to publication PMC10440475 (Heliyon, 2023):
# Values joined by “and” are separate entries in the source; they are usually repeats but may differ in a detail not shown here. Identical values can stand only once.
# B1: eGFP-fused Shaker potassium channel protein (natural protein)
# chain: MAAVAGLYGLGEDRQHRKKQQQQQQHQKEQLEQKEEQKKIAERKLQLREQQLQRNSLDGYGSLPKLSSQDEEGGAGHGFGGGPQHFEPIPHDHDFCERVVINVSGLRFETQLRTLNQFPDTLLGDPARRLRYFDPLRNEYFFDRSRPSFDAILYYYQSGGRLRRPVNVPLDVFSEEIKFYELGDQAINKFREDEGFIKEEERPLPDNEKQRKVWLLFEYPESSQAARVVAIISVFVILLSIVIFCLETLPEFKHYKVFNTTTNGTKIEEDEVPDITDPFFLIETLCIIWFTFELTVRFLACPNKLNFCRDVMNVIDIIAIIPYFITLATVVAEEEDTLNLPKAPVSPQDKSSNQAMSLAILRVIRLVRVFRIFKLSRHSKGLQILGRTLKASMRELGLLIFFLFIGVVLFSSAVYFAEAGSENSFFKSIPDAFWWAVVTMTTVGYGDMTPVGVWGKIVGSLCAIAGVLTIALPVPVIVSNFNYFYHRETDQEEMQSQNFNHVTSCPYLPGTLGQHMKKSSLSESSSDMMDLDDGVESTPGLTETHPGRSAVAPFLGAQQQQQQPVASSLSMSIDKQLQHPLQQLTQTQLYQQQQQQQQQQQNGFKQQQQQTQQQLQQQQSHTINASAAAATSGSGSSGLTMRHNNALAVSIETDV
# Biological target: the molecule itself
# Assay: PFO-PAGE
protein,measurement,value
B1,stoichiometry N,2 and 4
